Assay results: patent US20180280504A1, “GLYCAN-INTERACTING COMPOUNDS AND METHODS OF USE” (SIAMAB THERAPEUTICS, INC., priority 2014, published 2018)
Read-outs that look alike come from different tables or passages of the source.

How the values were obtained:
OV-90 cells = assay: Cell viability assay with secondary antibody-drug conjugate (2° ADC), OV-90; format: cell-based; conditions: with 2° ADC Fab αMFc-CL-MMAF
Protocol: (§1) Cell viability assays are performed to screen anti-STn antibodies of the present invention in the presence and absence of secondary antibody-drug conjugates (2° ADCs). The purpose of the screen is to identify the ability of each anti-STn antibody to inhibit cell growth. Antibodies with potent cell growth inhibition are used to design direct antibody-drug conjugates (ADCs). Using such secondary antibody-drug conjugates (2° ADCs) in cell-based cytotoxic assays can quickly pre-screen many ADC candidates against tumor cells. Based on the assay, a naked antibody candidate is directly added to cells in the presence of a 2° ADC. Internalization of the mAb/2° ADC complex into cells that express a high density of the targeted antigen can achieve a dose-dependent drug release within the cells, causing a cytotoxic effect to kill the cells (e.g., tumor cells), while cells expressing a low density of the targeted antigen are not affected (e.g., normal cells).
(§2) To perform cell viability assays, cell lines described in the present application (MDA-MB-231 parental, MDA-MB-231-STn+, and OV-90) are prepared and cultured for the assays. The cell culture is optimized for cell density by plating different densities of cells (e.g., 2,000, 4,000 and 7,500 per well) on a 96-well plate and observing the cell growth for 96 hours. The plating condition in which cells reach around 90% confluence at the end of the 96 hours is identified and the optimal cell number is then used in the final viability assay.
(§3) Duplicate or triplicate cell plates for each cell line are used for testing each antibody candidate.
For cell viability assays, data points are collected for each antibody candidate with duplicates for each data point. […]
(§4) Cell viabilities are measured by Cell-Titer Glo luminescence based assays.
Three anti-STn monoclonal antibodies (anti-STn antibodies S3F, 7G9 and 2D4) and an anti-EGFR monoclonal antibody LA22 were tested for internalization. […] Cell viability was then measured using CellTitreGlo Luminescent Cell Viability Assay (Promega, Madison, Wis.).

MDA-MB-231-STn+ cells = assay: Cell viability assay with secondary antibody-drug conjugate (2° ADC), STn+ cells; format: cell-based, human; conditions: for IC50: MDA-MB-231-STn+ cells
Protocol: as §1, §2, §3
For cell viability assays, data points are collected for each antibody candidate with duplicates for each data point. Each antibody candidate is diluted in serial concentrations from 0.3 pM to 20 nM.
Alternatively, data points are collected for each antibody candidate with triplicates for each data point. Each antibody candidate is diluted in serial concentrations from 1 pM to 20 nM.
as §4
Three anti-STn monoclonal antibodies (anti-STn antibodies S3F, 7G9 and 2D4) and an anti-EGFR monoclonal antibody LA22 were tested for internalization. Six plates of cell culture, two per cell line (MDA-MB-231 parental, MDA-MB-231-STn+, and OV-90), were used to assay the antibody candidates. Each plate can be used to assay the four antibody candidates simultaneously. A secondary anti-IgG antibody conjugated to MMAF (monomethyl auristatin phenylalanine), a non-permeable Aurastatin analog, was used as the 2° ADC. Cell viability was then measured using CellTitreGlo Luminescent Cell Viability Assay (Promega, Madison, Wis.).

[1] = tested on: MDA-MB-231 cells expressing cell-surface Neu5Ac-STn; assay: Flow cytometry assay to quantify antibody internalization; format: cell-based, human; conditions: for % cells exhibiting 488 fluorescence: 4° C.; for internalization (conclusion): Neu5Ac-STn-overexpressing MDA-MB-231 cells
Protocol: For analysis, stably transfected variants of MDA-MB-231 cells (clone TAH3.P10) that express high levels of cell surface-bound Neu5Ac-STn are harvested using 10 mM EDTA and washed with PBS comprising 1% BSA before pelleting by light centrifugation. Cell numbers and viability are determined by trypan blue dye exclusion analysis and cell concentrations are adjusted to 5×10^6 cells/ml in PBS with 1% BSA. 50 μl of cells are added to each well of an assay plate. Cells are combined with 50 μl solutions of antibody or fluorescently-labeled antibody and incubated for 1 hour at 4° C. Following this incubation period, cells are washed with PBS to remove unbound antibody and aliquots are removed for incubation for various times (15, 30, 60 minutes) at 37° C. to allow bound antibody to internalize at a physiologically relevant temperature. After each incubation, cell surface-bound antibody is removed by treating cells with acidic medium (150 mM NaCl, pH=2.5) Cells treated with unlabeled antibody are washed with PBS and fixed with paraformaldehyde fixation buffer (PFA) containing 3% paraformaldehyde and 2% sucrose in PBS for 15 minutes at room temperature. These cells are rinsed again in PBS and treated with blocking buffer made up of PBS with 1% bovine serum albumin (BSA). Cells are incubated for 30 min at room temperature, rinsed in PBS and treated with secondary antibody (allophycocyanin-labeled goat-anti-mouse IgG) for 2 hours at room temperature. All cells are then washed with PBS and subjected to flow cytometry analysis wherein 10,000 events are recorded for each sample. Residual fluorescent signal in acid-treated samples is further quenched via treatment with trypan blue dye.
Flow cytometry analysis was carried out in order to quantify the extent of antibody internalization according to the procedure of Example 15. MDA-MB-231 cells expressing high levels of cell-surface bound Neu5Ac-STn were harvested using StemPro Accutase buffer and washed with PBS comprising 5% FBS before pelleting by light centrifugation. Cell numbers and viability were determined by trypan blue dye exclusion analysis and cell concentrations were adjusted to 5×10^6 cells/ml in PBS with 5% FBS. 50 μl of cells were added to each well of an assay plate. Cells were then combined with 50 μl solutions of antibody S3F or ALEXA FLUOR® 488-conjugated antibodies S3F, 7G9 or GB26.6 and incubated for 1 hour at 4° C. Following this incubation period, cells were washed with PBS to remove unbound antibody and aliquots were removed for incubation for various times (15, 30, 60 minutes) at 37° C. After each incubation, cells were treated with acidic medium (150 mM NaCl, pH=2.5) to remove surface-bound antibody. Cells treated with unlabeled S3F were washed with PBS 5% FCS. Secondary antibody (allophycocyanin-labeled goat-anti-mouse IgG) was added to the cells and incubated for 30 min at 4° C., rinsed in PBS 5% FBS and kept on ice until flow cytometry analysis. All cells were then washed with PBS and subjected to flow cytometry analysis wherein 10,000 events were recorded for each sample.
Culturing and harvesting of MDA-STn+ cells was performed according to Example 14. Staining of MDA-STn+ cells with S3F antibody included either unlabeled S3F or S3F directly labeled with ALEXA FLUOR® 488 (Thermo Fisher Scientific, Pittsburgh, Pa.). Stained control vials were kept at 4° C. until analysis was performed. Controls included a GB26.6 antibody negative control for STn binding, unstained control, and unlabeled S3F antibody followed by an APC secondary antibody. Vials for each experimental time point (15, 30 and 60 min) were incubated in complete media at 37° C. 5% CO2 to allow for antibody internalization. Immediately prior to analysis by flow cytometry, non-internalized antibody was stripped from the cell surface of experimental samples using 150 mM NaCl pH 2.5 (acidic buffer).

[2] = with 2° ADC Fab αMFc-CL-MMAF, CellTitreGlo, read-out: IC50 (nM), secondary internalization assay
[3] = ALEXA FLUOR 488-conjugated antibody, acid
[4] = ALEXA FLUOR 488-conjugated antibody, no acid

Molecule	activity in OV-90 cells (OV-90 cells)	IC50 (MDA-MB-231-STn+ cells; [2]) [nM]	activity in MDA-MB-231-STn+ cells (MDA-MB-231-STn+ cells; with 2° ADC Fab αMFc-CL-MMAF)	% cells exhibiting 488 fluorescence [1, 3]	% cells exhibiting 488 fluorescence [1, 4]	% fluorescent cells prior to acid treatment and trypan blue exposure ([1]; ALEXA FLUOR 488-conjugated antibody, 37° C. for various times)	% of cells exhibiting fluorescence after acidic buffer and trypan blue ([1]; ALEXA FLUOR 488-conjugated antibody, 37° C., trypan blue quench of surface signal)	% fluorescent cells after trypan blue ([1]; ALEXA FLUOR 488-conjugated antibody, stained at 4° C., trypan blue)	internalization (conclusion) [1]	IC50 (MDA-MB-231-STn+ cells; unit inferred, b641, read-out: IC50 in the presence of Fab αMFc-CL-MMAF) [nM]	% cells exhibiting 488 fluorescence ([1]; ALEXA FLUOR 488-conjugated antibody, then 37° C. 15 min, acid) [%]	% cells exhibiting 488 fluorescence ([1]; ALEXA FLUOR 488-conjugated antibody, then 37° C. 15 min, no acid) [%]	% cells exhibiting 488 fluorescence ([1]; ALEXA FLUOR 488-conjugated antibody, then 37° C. 30 min, acid) [%]	% cells exhibiting 488 fluorescence ([1]; ALEXA FLUOR 488-conjugated antibody, then 37° C. 30 min, no acid) [%]	% cells exhibiting 488 fluorescence ([1]; ALEXA FLUOR 488-conjugated antibody, then 37° C. 60 min, acid) [%]	% cells exhibiting 488 fluorescence ([1]; ALEXA FLUOR 488-conjugated antibody, then 37° C. 60 min, no acid) [%]	% of cells exhibiting fluorescence after the staining period ([1]; ALEXA FLUOR 488-conjugated antibody, no acid, range over samples)
2D4: anti-STn mouse monoclonal, IgG2b κ, from mouse #4407; VH SEQ ID NO: 10, VL SEQ ID NO: 11 (antibody, V domains shown) VH: QVQLQESGPGLVAPSQSLSITCTVSGFSLISYGVNWVRQPPGKGLEWLGVIWGDGSTNYQSALISRLIISKDNSKSQVFLKLNSLQTDDTATYYCTKGFAYWGQGTLVTVSA VL: QIVLTQSPAIMSASPGEKVTMTCSASSSVSYMHWFQQKSGTSPKRWIYDTSKLASGVPARFSGSGSGTSYSLTISSMEAEDAATYYCQQWSSNLLTFGAGTKLELK	lack of effect	0.056	demonstrate activity	–	–	–	–	–	–	–	–	–	–	–	–	–	–
7G9: anti-STn mouse monoclonal, IgG2b κ, from mouse #4407; VH SEQ ID NO: 12, VL SEQ ID NO: 9 (antibody, V domains shown) VH: QVQLKESGPGLVAPSQNLSITCTVSGFSLTSYGVNWVRQPPGKGLEWLGVIWGDGSTNYHSALISRLIISKENSKSQVFLKLNSLQTNDTATYYCTKGFVYWGQGTLVTVSA VL: QIVLTQSPAIMSASPGEKVTMTCSASSSVSYMHWYQQKSGTSPKRWIFDTSKLASGVPARFSGSGSGTSYSLTISSMEAEDAATYYCQQWSSNLLTFGAGTKLELK	lack of effect	0.181	demonstrate activity	approximately 70%	approximately 80%	60-80%	20-45%	less than 20%	successfully internalized	–	–	–	–	–	–	–	–
S3F: 3F1 variable domains combined with IgG2a constant domains; heavy chain SEQ ID NO: 63, light chain SEQ ID NO: 64 (antibody) heavy: QVQLQQSDAELVKPGASVKISCKASGYTFTDHAIHWVKQKPEQGLDWIGYISPGNGDIKYNEKFKDKVTLTADKSSSTACMHLNSLTSEDSAVYFCKRSLLALDYWGQGTTLTVSSAKTTAPSVYPLAPVCGDTTGSSVTLGCLVKGYFPEPVTLTWNSGSLSSGVHTFPAVLQSDLYTLSSSVTVTSSTWPSQSITCNVAHPASSTKVDKKIEPRGPTIKPCPPCKCPAPNLLGGPSVFIFPPKIKDVLMISLSPIVTCVVVDVSEDDPDVQISWFVNNVEVHTAQTQTHREDYNSTLRVVSALPIQHQDWMSGKEFKCKVNNKDLPAPIERTISKPKGSVRAPQVYVLPPPEEEMTKKQVTLTCMVTDFMPEDIYVEWTNNGKTELNYKNTEPVLDSDGSYFMYSKLRVEKKNWVERNSYSCSVVHEGLHNHHTTKSFSRTPGK light: DIVMTQSHKFMSTSVGDRVSITCKASQDVGTNIAWYQQKPGRSPKVLIYSASTRHTGVPDRFTGSGSGTDFTLTISNVQSEDLTDYFCQQYSSFPLTFGVGTKLELKRADAAPTVSIFPPSSEQLTSGGASVVCFLNNFYPKDINVKWKIDGSERQNGVLNSWTDQDSKDSTYSMSSTLTLTKDEYERHNSYTCEATHKTSTSPIVKSFNRNEC	modest activity	0.058	demonstrate activity	9.29%	57.9%	–	–	–	can be internalized	0.124	22.5	56.6	25.9	53.1	31.5	50.9	50-57%
